Experimental data as given in patent US20220213216A1 (SOUND BIOPHARMACEUTICALS, published 2022).

Tests used:
[1] = biological target: T1, human Her2 with an Fc tag (AcroBiosystem, catalog number HE2-H5253) (human, UniProt P04626 23-652); experiment: BLI (Octet QKe), Her2-Fc on Protein A biosensors, 1:1 fit; single-site bivalent Bi-Bs
T1 construct: extracellular domain; Bought protein, loaded on Protein A biosensors; also called Her2 antigen; extracellular region of the Her2 protein; not shown: Fc tag of the bought protein, not described
Procedure: (§1) Affinity assay: The OctetQKe instrument (Pall Life Sciences) was used to determine the affinity of the anti-Her2 antibody to the extracellular region of the Her2 protein. Briefly, human Her2 with an Fc tag in PBST (AcroBiosystem, catalog number HE2-H5253) was loaded onto the surface of ProteinA Capture Biosensors (ProA). Immobilization level was set at […]. Then a 60-second biosensor baseline step was performed, and the antigen/antibody association was analyzed for 180 seconds on the biosensor to test the antibody/antigen. The test molecules were then applied at a two-fold concentration gradient. The data analysis software version 8.2 (PALL/ForteBio) was used to evaluate the Octet data, and the full-fit 1:1 modal was used to determine the Kd value.
(§2) In order to detect the binding ability of the antibodies to Her2 antigen, biofilm interference technology (BLI) was used to analyze the interaction between the antibodies and Her2 antigen.

[2] = biological target: T1, human Her2 with an Fc tag …; experiment: BLI (OctetQKe); Fc-tagged human Her2 loaded on Protein A biosensors, antibody in two-fold dilutions, 1:1 fit
Procedure: as §1

[3] = biological target: T1, human Her2 with an Fc tag …; experiment: BLI (OctetQKe); Fc-tagged human Her2 loaded on Protein A biosensors, antibody in two-fold dilutions, 1:1 fit; column head Kdis
Procedure: as §1

[4] = biological target: T1, human Her2 with an Fc tag …; experiment: BLI (Octet QKe), Her2-Fc on Protein A biosensors, 1:1 fit; Bp-Bs with dual Her2 binding sites
Procedure: as §1, §2

[5] = biological target: T1, human Her2 with an Fc tag …; experiment: BLI (Octet QKe), Her2-Fc on Protein A biosensors, 1:1 fit
Procedure: as §1, §2

Binder | Kd [1] [nM] | kon [2] [M⁻¹ s⁻¹] | koff [3] [s⁻¹] | Kd [4] [nM] | Kd [5] [nM]
anti-Her2-VHH1-Fc (Fc fusion, Called a single-site bivalent antibody; 1; also called single-site bivalent antibody anti-Her2 VHH1-Fc; not shown: Fc and any linker are not described) QVQLVQSGGGLVQAGGSLRLSCAASGRTFSSYAMAWFRQAPGKEREFVAAISWSGANIYVADSVKGRFTISRDNAKDTVYLQMNSLKPEDTAVYYCAVKLGFAPVEERQYDYWGQGTQVTVSS |  | 298000 | 0.00263 |  | 8.85
anti-Her2-VHH2-Fc (Fc fusion, Called a single-site bivalent antibody; 2; not shown: Fc and any linker are not described) QVQLQESGGGSVQAGGSLRLSCRASGFTFSSYAMSWVRQPPGKELEWVSAIWGGGDSQHYADSVKGRFTISRDNAKNTLYLQLNSLKTEDTGMYYCVKDRGPFFSGSKYVLGAADRGQGTQVTVSS |  | 29800 | 8.99e-05 |  | 3.02

The remaining lines, values ahead:

Kd [1] [nM] | kon [2] [M⁻¹ s⁻¹] | koff [3] [s⁻¹] | Kd [4] [nM] | Kd [5] [nM] | Binder
3.06 | 163000 | 0.000497 |  |  | bivalent anti-Her2 bispecific antibody Bi-Bs (anti-CD3 UCHT1 Fab with anti-Her2 VHH1 on both CL and CH1) (bispecific antibody, 3 is VL-CL-VHH1, so the heavy and light labels are probably swapped in this sentence; Expressed in E. coli and purified on Ni Sepharose) chain 1: EIVLTQSPATLSLSPGERATLSCSASSGVNYMHWYQQKPGQAPRRWIYDTSKLASGVPARFSGSGSGTSYSLTISSLEPEDFAVYYCHQRGGSYTFGGGTKLEIKRKLTVAAPSVFIFPPSDEQLKSGTASVVCLLNNFYPREAKVQWKVDNALQSGNSQESVTEQDSKDSTYSLSSTLTLSKADYEKHKVYACEVTHQGLSSPVTKSFNRGECGSQVQLVQSGGGLVQAGGSLRLSCAASGRTFSSYAMAWFRQAPGKEREFVAAISWSGANIYVADSVKGRFTISRDNAKDTVYLQMNSLKPEDTAVYYCAVKLGFAPVEERQYDYWGQGTQVTVSS chain 2: QVQLVQSGAEVKKPGASVKVSCKTSGYTFTSNWMHWVRQAPGQGLEWMGEIDPSDSYTNYNQKFKGRVTITVDKSASTAYMELSSLRSEDTAVYYCARGSNPYYYAMDYWGQGTLVTVSSKLASTKGPSVFPLAPSSKSTSGGTAALGCLVKDYFPEPVTVSWNSGALTSGVHTFPAVLQSSGLYSLSSVVTVPSSSLGTQTYICNVNHKPSNTKVDKKVGSGGGGSGGGGSGGGGSQVQLVQSGGGLVQAGGSLRLSCAASGRTFSSYAMAWFRQAPGKEREFVAAISWSGANIYVADSVKGRFTISRDNAKDTVYLQMNSLKPEDTAVYYCAVKLGFAPVEERQYDYWGQGTQVTVSS
 | 215000 | 2.33e-05 | 0.109 |  | bispecific antibody Bp-Bs with dual Her2 binding sites (anti-CD3 UCHT1 Fab with anti-Her2 VHH1 on CL and anti-Her2 VHH2 on CH1) (bispecific antibody, VHHs are linked by (GGGGS)3; Expressed in E. coli and purified on Ni Sepharose; About 79 kDa) light: EIVLTQSPATLSLSPGERATLSCSASSGVNYMHWYQQKPGQAPRRWIYDTSKLASGVPARFSGSGSGTSYSLTISSLEPEDFAVYYCHQRGGSYTFGGGTKLEIKRKLTVAAPSVFIFPPSDEQLKSGTASVVCLLNNFYPREAKVQWKVDNALQSGNSQESVTEQDSKDSTYSLSSTLTLSKADYEKHKVYACEVTHQGLSSPVTKSFNRGECGSQVQLVQSGGGLVQAGGSLRLSCAASGRTFSSYAMAWFRQAPGKEREFVAAISWSGANIYVADSVKGRFTISRDNAKDTVYLQMNSLKPEDTAVYYCAVKLGFAPVEERQYDYWGQGTQVTVSS heavy: QVQLVQSGAEVKKPGASVKVSCKTSGYTFTSNWMHWVRQAPGQGLEWMGEIDPSDSYTNYNQKFKGRVTITVDKSASTAYMELSSLRSEDTAVYYCARGSNPYYYAMDYWGQGTLVTVSSASTKGPSVFPLAPSSKSTSGGTAALGCLVKDYFPEPVTVSWNSGALTSGVHTFPAVLQSSGLYSLSSVVTVPSSSLGTQTYICNVNHKPSNTKVDKKVEPKSCDKTHTCAAGGGGSGGGGSGGGGSQVQLQESGGGSVQAGGSLRLSCRASGFTFSSYAMSWVRQPPGKELEWVSAIWGGGDSQHYADSVKGRFTISRDNAKNTLYLQLNSLKTEDTGMYYCVKDRGPFFSGSKYVLGAADRGQGTQVTVSS
